Experimental findings from US6630572 are described below.

Test [1] addresses high-affinity cell surface thrombin receptor on mouse embryo (ME) cells (mouse) (UniProt P30558). As to the kind of experiment: competition with [^125I]-alpha-thrombin (1 nM) on quiescent ME cells.
The target is the same in test [2]. As to the kind of experiment: competition with [^125I]-alpha-thrombin (1 nM) on quiescent ME cells; at 40 nM peptide.
Test [3] shares this target. As to the kind of experiment: competition with 0.3 nM [^125I]-alpha-thrombin on ME cells; p508-530 from 8 to 4000 nM.
For test [4] the target is unchanged. As to the kind of experiment: Scatchard analysis of direct binding of [^125I]-labelled peptide to cells (data not shown).
Test [5] shares this target. As to the kind of experiment: competition with [^125I]-alpha-thrombin (1 nM) for specific binding to quiescent ME cells, 23 C.
Test [6] has the same target. As to the kind of experiment: cell-based or functional assay.
The target in test [7] is high-affinity cell surface thrombin receptor on NIL cells (hamster fibroblasts) (hamster). As to the kind of experiment: cell-based or functional assay.
For test [8], the target named is high-affinity cell surface thrombin receptor on mouse embryo (ME) cells (mouse) (UniProt P30558). As to the kind of experiment: competition with [^125I]-alpha-thrombin on ME cells.
The target is the same in test [9]. As to the kind of experiment: competition with [^125I]-alpha-thrombin on ME cells; reference p508-530.
For test [10] the target is unchanged. As to the kind of experiment: competition with [^125I]-alpha-thrombin (1 nM) on quiescent ME cells; at 800 nM peptide.

Several values for one entry are separate records, joined by “and”; a condition that tells them apart may be missing. Identical values can stand only once. Some results are limits rather than exact numbers.

“synthetic peptide p508-530 (residues 508 to 530 of human prothrombin)” had a concentration at Maximal % Inhibition in test [1] of 40 nM. The substance further displayed a Maximal % Inhibition in test [2] of 78%. In addition, in test [3], the percent of specific [^125I]-alpha-thrombin binding competed lay within 30 to 70%. Moreover, in [4], the Kd is 60 nM. In [5], the Concentration Required for 30% Inhibition was 6 nM. Moreover, in test [6], the concentration of p508-530 at which stimulation of ME cells was observed is 12.5 nM and 100 nM; the increase in incorporation of [^3H]-thymidine into DNA in ME cells, 0.1 uM p508-530 with 2 nM alpha-thrombin, against cultures treated with alpha-thrombin alone was more than 2 fold; the increase in incorporation of [^3H]-thymidine into DNA in ME cells, 0.1 uM p508-530 with 2 nM alpha-thrombin, against untreated cultures came to 6 fold. For the same substance, in [7], the increase in DNA synthesis over controls in NIL cells in the presence of 25 ng/ml PMA stood at 3.5 fold.

In turn, “synthetic peptide p519-530 (residues 519 to 530 of the B-chain region of human prothrombin)” yielded a concentration at Maximal % Inhibition in test [1] of 800 nM. The same substance returned a percent of [^125I]-alpha-thrombin binding competed in [8] of 30 to 50%. Further, the Concentration Required for 30% Inhibition in [5] stood at 200 nM. Moreover, the fold higher concentration for 30% inhibition than p508-530 in test [9] stood at 33 fold. Also, the Maximal % Inhibition in [10] was 51%.

Usually Kd stands for a measure of binding affinity in units of concentration. A low value points to higher affinity.
